Numbering of substitutions follows the chain as printed.
B1: B01 (antibody, V domains shown)
VH: QIQLVQSGPELKKPGETVKISCKASGYTFTNYGMNWVKQAPGKGLKWMGWINPYTGEPTYADDFKGRFAFSVETSASTAYLQINNLKNEDTATYFCARKPPFDYWGQGTTLTVSS
VL: DIVMTQAAPSVPVTPGESVSISCRSSKSLLHSNGNTYLYWFLQRPGQSPQILIYRVSNLASGVPDRFSGSGSGTAFTLRISRVEAEDVGVYYCMQHVEYPFTFGSGTKLEIK
B2: B02 (antibody, V domains shown)
VH: EVQLQQSGPELVKPGASVKMSCKASGYTFTSYVMYWVKQKPGQGLEWIGYVNPYNDGTNYNEKFKGKATLTSDKSSSTAYMELSSLTSEDSAVYYCARGAMDYWGQGTSVTVSS
VL: B1 VL with N33Q
B3: A01 (antibody, V domains shown)
VH: QVQLKESGPGLVAPSQSLSITCTVSGFSLPTSGVHWVRQPPGKGLEWLGVIWAGGDTNYNSALMSRLSISKDNSKSQVFLKMNSLQKDDTAIYYCLGHGHFDVWGAGTTVTVSS
VL: DVVMTQTPLSLPVSLGDQASISCRSSQSLVHSSGNTYLQWYLQKPGQSPGLLIYKVSNRFSGVPDRFSGSGSGTDFTLKISRVEAEDLGVYFCSQTTHVPWTFGGGTKLEIK
B4: A02 (antibody, V domains shown)
VH: B3 VH with P30T, T31S, N58S, K87T, I92M, F101L
VL: B3 VL with Q39H
B5: A03 (antibody, V domains shown)
VH: DVQLQESGPDRVKPSQSLSLTCTVTGYSITSDYSWHWIRQFPGNKLEWMGYIYSSGHTYYNPSLKSRISFTRDTSKNQFFLQLNSVTTEDTATYYCAIYYYGRSYFDNWGRGTTLTVSS
VL: QIVLTQSPAIMSASPGEKVTLTCSASSSVNYMHWYQQKSGTSPKRWIYDTSKLASGVPARFSGSGSGTSYSLTISSMEAEDAATYYCQQWSSNPLTFGAGTKLELK
B6: B03 (antibody, V domains shown)
VH: EVKLVESGGGLVQPGGSLRLSCATSGFTFSDFYMEWVRQPPGKRLEWIAASRDKANDYTTEYSPSVQGRFIVSRDSSQSILYLQMNALRTEDTAIYYCARDVGRSYALDYWGQGTSVTVSS
VL: B5 VL with I2V, L21M, N30T, D49V, A59T, S92R, N93K, L95P
B7: hzA01-3.1 (antibody, human IgG4 S228P, kappa, V domains shown)
VH: QVQLQESGPGLVKPSETLSLTCTVSGFSLPTSGVHWIRQPPGKGLEWIGVIWAGGDTNYNPSLKSRVTISKDNSKNQVFLKLSSVTAADTAVYYCLGHGHFDVWGQGTLVTVSS
VL: DVVMTQSPLSLPVTLGQPASISCRSSQSLVHSSGNTYLQWYLQRPGQSPGLLIYKVSNRFSGVPDRFSGSGSGTDFTLKISRVEAEDVGVYYCSQTTHVPWTFGQGTKLEIKR
B8: hzA01-3.3 (antibody, human IgG4 S228P, kappa, V domains shown)
VH: B7 VH with Q5K, P61S, S62A, N76S
VL: B7 VL
B9: hzA01-3.4 (antibody, human IgG4 S228P, kappa, V domains shown)
VH: B7 VH with Q5K, P61S, S62A, K64M, N76S, L82M
VL: B7 VL
B10: Chi-A01 (antibody, human IgG4 S228P, kappa, V domains shown)
VH: B3 VH
VL: B7 VL with S7T, T14S, Q17D, P18Q, R44K, V88L, Y92F, Q105G

target: human CD40 (hCD40), full length, on cells (human) (UniProt P25942); assay: not given
Sequence (P25942 21-277 limits assumed): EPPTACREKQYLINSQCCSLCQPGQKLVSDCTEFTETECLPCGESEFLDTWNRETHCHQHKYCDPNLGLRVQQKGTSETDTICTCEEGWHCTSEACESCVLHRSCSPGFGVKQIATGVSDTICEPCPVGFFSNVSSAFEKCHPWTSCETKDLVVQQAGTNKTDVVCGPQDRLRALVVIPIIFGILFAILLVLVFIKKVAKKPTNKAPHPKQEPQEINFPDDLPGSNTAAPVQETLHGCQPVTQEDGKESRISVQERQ

IC50; NF-κB luciferase reporter (RLU), 293T-hCD40-NFκB cells stimulated with human CD40L protein 10 µg/mL	Binder
8.16 ng/mL	B1
5.21 ng/mL	B2
2.22 ng/mL	B3
2.79 ng/mL	B4
287 ng/mL	B5
16.2 ng/mL	B6

target: cynoCD40-mFc (monkey (cyno)); assay: flow cytometry, blocking of cynoCD40-mFc (2 µg/mL) binding to CHO-K1-cynoCD40L cells
Sequence (chain, as listed by the source limits assumed, form in doubt): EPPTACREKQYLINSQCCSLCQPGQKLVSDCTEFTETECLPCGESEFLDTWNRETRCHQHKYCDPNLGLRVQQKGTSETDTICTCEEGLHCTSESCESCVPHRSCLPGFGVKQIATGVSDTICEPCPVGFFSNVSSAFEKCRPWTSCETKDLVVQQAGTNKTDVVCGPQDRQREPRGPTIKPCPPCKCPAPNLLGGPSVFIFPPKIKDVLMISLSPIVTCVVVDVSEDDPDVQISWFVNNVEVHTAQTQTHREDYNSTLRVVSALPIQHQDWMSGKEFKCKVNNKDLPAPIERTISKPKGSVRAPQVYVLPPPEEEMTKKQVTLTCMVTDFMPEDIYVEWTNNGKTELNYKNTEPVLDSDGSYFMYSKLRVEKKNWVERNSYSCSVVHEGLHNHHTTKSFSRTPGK

IC50	Binder
25.5 nM	B7
35.8 nM	B8
22.9 nM	B9
25.2 nM	B10
